Reference: patent US20110059888A1
One block for each molecule: values may come before it. *1 amine or outer side, *2 acyl side, *3 side chain or, on linkers, in order; H or OH if unused. [ ]: non-standard residue; d: D form. Ser(Me) = O-methylserine, COC[C@H](N[*:1])C(=O)[*:2]; Arg(Me) = CNC(=N)NCCC[C@H](N)C(=O)O; Ala(cPr) = N[C@@H](CC1CC1)C(=O)O; Hyp = O=C(O)[C@@H]1C[C@@H](O)CN1; 2Pal = N[C@@H](Cc1ccccn1)C(=O)O; 3Pal = N[C@@H](Cc1cccnc1)C(=O)O; 4Pal = N[C@@H](Cc1ccncc1)C(=O)O; Cha = N[C@@H](CC1CCCCC1)C(=O)O

Target: human OT7T175 (metastin receptor) (human) (UniProt Q969F8)
Sequence of UniProt Q969F8 (Q969F8 whole entry L364H): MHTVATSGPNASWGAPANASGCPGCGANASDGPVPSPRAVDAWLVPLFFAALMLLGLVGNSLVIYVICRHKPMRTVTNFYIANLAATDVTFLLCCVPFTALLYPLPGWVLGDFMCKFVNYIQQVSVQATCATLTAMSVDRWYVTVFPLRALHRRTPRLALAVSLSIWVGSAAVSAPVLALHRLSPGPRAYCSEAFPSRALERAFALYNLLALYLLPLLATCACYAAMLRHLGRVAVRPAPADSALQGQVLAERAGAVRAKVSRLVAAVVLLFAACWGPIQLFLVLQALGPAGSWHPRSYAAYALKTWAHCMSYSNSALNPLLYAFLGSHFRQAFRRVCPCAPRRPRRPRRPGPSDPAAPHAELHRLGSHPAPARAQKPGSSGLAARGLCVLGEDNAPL
Experiment: cell-based or functional assay

- Specific Activity (EC50 of test compound based on EC50 of Metastin (45-54); intracellular calcium, FLIPR) (ratio to EC50 of Metastin (45-54)): 1.7
Molecule: Ac-[dY][Hyp]NTFGL[Arg(Me)]W-NH2 (also: Phe5-Gly6 amide replaced by (S)CHOH-(E)CH=) [des(1)-Ac-[D-Tyr2,Hyp3,Thr5,Phe6Ψ((S)CHOH-(E)CH=)Gly7,Arg(Me)9,Trp10]MS10]

- Specific Activity (EC50 of test compound based on EC50 of Metastin (45-54); intracellular calcium, FLIPR) (ratio to EC50 of Metastin (45-54)): 1.3
Molecule: Ac-[dY][Hyp]NTFGL[Arg(Me)]W-NH2 (also: Phe5-Gly6 amide replaced by CH2CH2) [des(1)-Ac-[D-Tyr2,Hyp3,Thr5,Phe6Ψ(CH2CH2)Gly7,Arg(Me)9,Trp10]MS10]

- Specific Activity (EC50 of test compound based on EC50 of Metastin (45-54); intracellular calcium, FLIPR) (ratio to EC50 of Metastin (45-54)): 1.7
B2: des(1)-Ac-[D-Tyr2,Hyp3,Thr5,Val7,Arg(Me)9,Trp10]MS10 (peptide)
peptide: Ac-[dY][Hyp]NTFVL[Arg(Me)]W-NH2
SMILES: CNC(=N)NCCC[C@H](NC(=O)[C@H](CC(C)C)NC(=O)[C@@H](NC(=O)[C@H](Cc1ccccc1)NC(=O)[C@@H](NC(=O)[C@H](CC(N)=O)NC(=O)[C@@H]1C[C@@H](O)CN1C(=O)[C@@H](Cc1ccc(O)cc1)NC(C)=O)[C@@H](C)O)C(C)C)C(=O)N[C@@H](Cc1c[nH]c2ccccc12)C(N)=O

- Specific Activity (EC50 of test compound based on EC50 of Metastin (45-54); intracellular calcium, FLIPR) (ratio to EC50 of Metastin (45-54)): 1.2
B3: des(1)-Ac-[D-Tyr2,Hyp3,Thr5,Ser(Me)7,Arg(Me)9,Trp10]MS10 (peptide)
peptide: Ac-[dY][Hyp]NTF[Ser(Me)]L[Arg(Me)]W-NH2
SMILES: CNC(=N)NCCC[C@H](NC(=O)[C@H](CC(C)C)NC(=O)[C@H](COC)NC(=O)[C@H](Cc1ccccc1)NC(=O)[C@@H](NC(=O)[C@H](CC(N)=O)NC(=O)[C@@H]1C[C@@H](O)CN1C(=O)[C@@H](Cc1ccc(O)cc1)NC(C)=O)[C@@H](C)O)C(=O)N[C@@H](Cc1c[nH]c2ccccc12)C(N)=O

- Specific Activity (EC50 of test compound based on EC50 of Metastin (45-54); intracellular calcium, FLIPR) (ratio to EC50 of Metastin (45-54)): 1.2
B4: des(1)-Ac-[D-Tyr2,Hyp3,Thr5,Pya(2)6,Arg(Me)9,Trp10]MS10 (peptide)
peptide: Ac-[dY][Hyp]NT[2Pal]GL[Arg(Me)]W-NH2
SMILES: CNC(=N)NCCC[C@H](NC(=O)[C@H](CC(C)C)NC(=O)CNC(=O)[C@H](Cc1ccccn1)NC(=O)[C@@H](NC(=O)[C@H](CC(N)=O)NC(=O)[C@@H]1C[C@@H](O)CN1C(=O)[C@@H](Cc1ccc(O)cc1)NC(C)=O)[C@@H](C)O)C(=O)N[C@@H](Cc1c[nH]c2ccccc12)C(N)=O

- Specific Activity (EC50 of test compound based on EC50 of Metastin (45-54); intracellular calcium, FLIPR) (ratio to EC50 of Metastin (45-54)): 0.5
Molecule: Ac-[dY][Hyp]NTFGL[Arg(Me)]W-NH2 (also: Phe5-Gly6 amide bond replaced by CH2O) [des(1)-Ac-[D-Tyr2,Hyp3,Thr5,Phe6Ψ(CH2O)Gly7,Arg(Me)9,Trp10]MS10]

- Specific Activity (EC50 of test compound based on EC50 of Metastin (45-54); intracellular calcium, FLIPR) (ratio to EC50 of Metastin (45-54)): 1.1
Molecule: Ac-[dY][Hyp]NTFGL[Arg(Me)]W-NH2 (also: Phe5-Gly6 amide bond replaced by COCH2) [des(1)-Ac-[D-Tyr2,Hyp3,Thr5,Phe6Ψ(COCH2)Gly7,Arg(Me)9,Trp10]MS10]

- Specific Activity (EC50 of test compound based on EC50 of Metastin (45-54); intracellular calcium, FLIPR) (ratio to EC50 of Metastin (45-54)): 0.9
B6: des(1)-Ac-[D-Tyr2,Hyp3,Thr5,Pya(3)6,Arg(Me)9,Trp10]MS10 (peptide)
peptide: Ac-[dY][Hyp]NT[3Pal]GL[Arg(Me)]W-NH2
SMILES: CNC(=N)NCCC[C@H](NC(=O)[C@H](CC(C)C)NC(=O)CNC(=O)[C@H](Cc1cccnc1)NC(=O)[C@@H](NC(=O)[C@H](CC(N)=O)NC(=O)[C@@H]1C[C@@H](O)CN1C(=O)[C@@H](Cc1ccc(O)cc1)NC(C)=O)[C@@H](C)O)C(=O)N[C@@H](Cc1c[nH]c2ccccc12)C(N)=O

- Specific Activity (EC50 of test compound based on EC50 of Metastin (45-54); intracellular calcium, FLIPR) (ratio to EC50 of Metastin (45-54)): 1.2
Molecule: Ac-[dY][Hyp]NTFGL[Arg(Me)]W-NH2 (also: Phe5-Gly6 amide replaced by (S)CHOH-CH2) [des(1)-Ac-[D-Tyr2,Hyp3,Thr5,Phe6Ψ((S)CHOH-CH2)Gly7,Arg(Me)9,Trp10]MS10]

- Specific Activity (EC50 of test compound based on EC50 of Metastin (45-54); intracellular calcium, FLIPR) (ratio to EC50 of Metastin (45-54)): 0.9
B7: des(1)-Ac-[D-Tyr2,Hyp3,Thr5,Pya(4)6,Arg(Me)9,Trp10]MS10 (peptide)
peptide: Ac-[dY][Hyp]NT[4Pal]GL[Arg(Me)]W-NH2
SMILES: CNC(=N)NCCC[C@H](NC(=O)[C@H](CC(C)C)NC(=O)CNC(=O)[C@H](Cc1ccncc1)NC(=O)[C@@H](NC(=O)[C@H](CC(N)=O)NC(=O)[C@@H]1C[C@@H](O)CN1C(=O)[C@@H](Cc1ccc(O)cc1)NC(C)=O)[C@@H](C)O)C(=O)N[C@@H](Cc1c[nH]c2ccccc12)C(N)=O

Continued, molecule first:

Molecule: des(1)-Ac-[D-Tyr2,Hyp3,Alb4,Thr5,Cha6,Gly7Ψ((E)CH═CH)Leu8,Trp10]MS10 (peptide)
- Specific Activity (EC50 of test compound based on EC50 of Metastin (45-54); intracellular calcium, FLIPR) (ratio to EC50 of Metastin (45-54)): 0.5

Molecule: Ac-[dY][Hyp]NT[Ala(cPr)]GL[Arg(Me)]W-NH2 [des(1)-Ac-[D-Tyr2,Hyp3,Thr5,Ala(cPr)6,Arg(Me)9,Trp10]MS10]
- Specific Activity (EC50 of test compound based on EC50 of Metastin (45-54); intracellular calcium, FLIPR) (ratio to EC50 of Metastin (45-54)): 1.9

Molecule: Ac-[dY][Hyp]NTFGL[Arg(Me)]W-NH2 (also: Phe5-Gly6 amide replaced by (R)CHOH-(E)CH=) [des(1)-Ac-[D-Tyr2,Hyp3,Thr5,Phe6Ψ((R)CHOH-(E)CH=)Gly7,Arg(Me)9,Trp10]MS10]
- Specific Activity (EC50 of test compound based on EC50 of Metastin (45-54); intracellular calcium, FLIPR) (ratio to EC50 of Metastin (45-54)): 1.4

Molecule: Ac-[dY][Hyp]NTFGL[Arg(Me)]W-NH2 [des(1)-Ac-[D-Tyr2,Hyp3,Thr5,Arg(Me)9,Trp10]MS10]
- Specific Activity (EC50 of test compound based on EC50 of Metastin (45-54); intracellular calcium, FLIPR) (ratio to EC50 of Metastin (45-54)): 1.2

B1: des(1)-Ac-[D-Tyr2,Glu3,Thr5,Cha6,Arg(Me)9,Trp10]MS10 (peptide)
peptide: Ac-[dY]ENT[Cha]GL[Arg(Me)]W-NH2
SMILES: CNC(=N)NCCC[C@H](NC(=O)[C@H](CC(C)C)NC(=O)CNC(=O)[C@H](CC1CCCCC1)NC(=O)[C@@H](NC(=O)[C@H](CC(N)=O)NC(=O)[C@H](CCC(=O)O)NC(=O)[C@@H](Cc1ccc(O)cc1)NC(C)=O)[C@@H](C)O)C(=O)N[C@@H](Cc1c[nH]c2ccccc12)C(N)=O
- Specific Activity (EC50 of test compound based on EC50 of Metastin (45-54); intracellular calcium, FLIPR) (ratio to EC50 of Metastin (45-54)): 0.6

Molecule: Ac-[dY][Hyp]NTFGL[Arg(Me)]W-NH2 (also: Gly6-Leu7 amide replaced by CH2NH) [des(1)-Ac-[D-Tyr2,Hyp3,Thr5,Gly7Ψ(CH2NH)Leu8,Arg(Me)9,Trp10]MS10]
- Specific Activity (EC50 of test compound based on EC50 of Metastin (45-54); intracellular calcium, FLIPR) (ratio to EC50 of Metastin (45-54)): 2.9

B5: des(1)-Ac-[D-Tyr2,Glu3,Thr5,Arg(Me)9,Trp10]MS10 (peptide)
peptide: Ac-[dY]ENTFGL[Arg(Me)]W-NH2
SMILES: CNC(=N)NCCC[C@H](NC(=O)[C@H](CC(C)C)NC(=O)CNC(=O)[C@H](Cc1ccccc1)NC(=O)[C@@H](NC(=O)[C@H](CC(N)=O)NC(=O)[C@H](CCC(=O)O)NC(=O)[C@@H](Cc1ccc(O)cc1)NC(C)=O)[C@@H](C)O)C(=O)N[C@@H](Cc1c[nH]c2ccccc12)C(N)=O
- Specific Activity (EC50 of test compound based on EC50 of Metastin (45-54); intracellular calcium, FLIPR) (ratio to EC50 of Metastin (45-54)): 0.5

Molecule: Ac-[dY][Hyp]NTFGL[Arg(Me)]W-NH2 (also: Phe5-Gly6 amide replaced by (E)CH=CH) [des(1)-Ac-[D-Tyr2,Hyp3,Thr5,Phe6Ψ((E)CH═CH)Gly7,Arg(Me)9,Trp10]MS10]
- Specific Activity (EC50 of test compound based on EC50 of Metastin (45-54); intracellular calcium, FLIPR) (ratio to EC50 of Metastin (45-54)): 0.7
